Reference: paper PMC5388508

Assays:
[1] = target: integrin αIIbβ3 of human platelets (human (endogenous in platelets)) (UniProt P08514)
[2] = target: integrin αIIbβ3 of human platelets (human (endogenous in platelets)) (UniProt P08514); test: flow cytometry on cells

With “Rhodostomin (Rho), recombinant, ^48PRGDMP-^65PRYH (natural protein)” the IC50 of inhibition of platelet aggregation [1] was 83.2 nM and the IC50 [2] was 90.8 nM.
